Measured values: the supplement of paper PMC12667976
± gives the standard error.

B1: library; numbered along this chain (parent)
chain: MATDAALRRLLRLHRTEIAVAVDSAFPLLHALADHDVVPEDKFQETLHLKEKEGCPQAFHALLSWLLTQDSTAILDFWRVLFKDYNLERYGRLQPILDSFPKDVDLSQPRKGRKPPAVPKALVPPPRLPTKRKASEEARAAAPAALTPRGTASPGSQLKAKPPKKPESSAEQQRLPLGNGIQTMSASVQRAVAMSSGDVPGARGAVEGILIQQVFESGGSKKCIQVGGEFYTPSKFEDSGSGKNKARSSSGPKPLVRAKGAQGAAPGGGEARLGQQGSVPAPLALPSDPQLHQKNEDECAVCRDGGELICCDGCPRAFHLACLSPPLREIPSGTWRCSSCLQATVQEVQPRAEEPRPQEPPVETPLPPGLRSAGEEVRGPPGEPLAGMDTTLVYKHLPAPPSAAPLPGLDSSALHPLLCVGPEGQQNLAPGARCGVCGDGTDVLRCTHCAAAFHWRCHFPAGTSRPGTGLRCRSCSGDVTPAPVEGVLAPSPARLAPGPAKDDTASHEPALHRDDLESLLSEHTFDGILQWAIQSMARPAAPFPS

Variants of: B1
Test: AIRE transcriptional activation functional score (insulin promoter-GFP; nonsense median 0, synonymous median 1) (normalised score); higher = higher AIRE activity (more reporter activation)
Conditions: with insulin promoter-GFP reporter in HEK293
Outline: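 The functional score compares variant enrichment between select and non-select populations after subtracting wild type. To obtain it, codon-optimized AIRE NNN-codon libraries spanning three regions were placed by Bxb1 recombinase into Flp-In T-REx HEK293 landing-pad cells with an insulin core promoter-GFP reporter. Cells with the top 10% GFP and unselected integrants were tile-sequenced after mCherry+, BFP− integrants had been sorted at day 7 and grown 7 more days. Only variants with 10 counts per million in non-select were kept, rescaled to nonsense median 0 and synonymous median 1, and averaged across biological replicates.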

AIRE transcriptional activation functional score of substitutions, site by site:
H415: Y 1.42 ± 0.36 | V 1.06 ± 0.16 | M -0.327 ± 0.28 | Q 0.783 ± 0.33 | P 1.11 ± 0.11 | N 1.22 ± 0.098 | W 0.671 ± 0.12 | S 0.782 ± 0.24 | R 0.811 ± 0.36 | T 0.92 ± 0.39
G421: L 0.327 ± 0.17 | K 0.558 ± 0.099 | C 1.58 ± 0.19 | M 0.931 ± 0.18 | E 1.65 ± 0.72 | S 0.74 ± 0.44 | T 0.472 ± 0.45 | A 0.875 ± 0.25 | R 0.926 ± 0.27 | V 0.933 ± 0.21 | W 1.43 ± 0.13 | H -0.132 ± 0.31 | N 0.869 ± 0.064 | D 1.83 ± 0.15 | Y -0.246 ± 0.36 | F 1.33 ± 0.074 | P 1.4 ± 0.13
V420: L 0.722 ± 0.31 | E 0.728 ± 0.1 | F 1.03 ± 0.27 | Y 0.639 ± 0.099 | K 0.606 ± 0.23 | C 1.11 ± 0.18 | R 1.03 ± 0.23 | A 1.04 ± 0.17 | Q -0.123 ± 0.3 | T 0.608 ± 0.23 | S 1.07 ± 0.48 | I 0.811 ± 0.046 | H 0.593 ± 0.17 | M 1.43 ± 0.14 | P 1.01 ± 0.37 | W 1.35 ± 0.026 | G 0.846 ± 0.31 | D 0.683 ± 0.26
C419: V 1.22 ± 0.3 | I 0.681 ± 0.19 | S 0.615 ± 0.4 | D 0.584 ± 0.27 | E 1.04 ± 0.084 | H 0.558 ± 0.21 | N 0.258 ± 0.13 | F 1.64 ± 0.15 | G 0.96 ± 0.41 | W 1.21 ± 0.085 | A 0.69 ± 0.37 | Q 1.3 ± 0.049 | K 1.17 ± 0.096 | R 0.836 ± 0.18 | L 1.33 ± 0.39 | P 1.24 ± 0.23 | T 1.2 ± 0.26
L418: F 1.42 ± 0.26 | A 1.06 ± 0.15 | N 1.02 ± 0.075 | D 0.816 ± 0.16 | S 0.85 ± 0.24 | G 1 ± 0.18 | K 0.4 ± 0.059 | R 0.67 ± 0.17 | Q 1.28 ± 0.14 | H 0.443 ± 0.16 | V 1.04 ± 0.086 | Y 1.42 ± 0.047 | M 0.207 ± 0.085 | T 0.829 ± 0.11 | I 0.6 ± 0.24 | E 0.507 ± 0.12 | P 0.93 ± 0.25 | C 1.16 ± 0.12
L428: W 1.31 ± 0.044 | H 1.48 ± 0.099 | I 1.22 ± 0.31 | Q 1.01 ± 0.025 | S 1.15 ± 0.15 | N 1.08 ± 0.23 | D 0.545 ± 0.29 | R 0.941 ± 0.13 | G 0.959 ± 0.25 | C 0.816 ± 0.14 | M 1.32 ± 0.089 | P 0.955 ± 0.32 | K 0.817 ± 0.14 | T 0.817 ± 0.26 | E 0.885 ± 0.37 | Y 1.05 ± 0.24 | F 1.09 ± 0.22 | A 1.08 ± 0.081
E423: K 0.795 ± 0.058 | D 1.25 ± 0.21 | F 1.02 ± 0.066 | G 1.34 ± 0.23 | A 1.2 ± 0.1 | L 1.28 ± 0.43 | H 1.2 ± 0.13 | P 0.817 ± 0.18 | R 0.409 ± 0.48 | I 1.05 ± 0.21 | Q 0.981 ± 0.48 | V 1.2 ± 0.16 | S 1.27 ± 0.33 | T 0.737 ± 0.77 | C 0.459 ± 0.22 | Y 1.38 ± 0.081 | M 0.551 ± 0.18
P422: E 0.766 ± 0.16 | F 0.774 ± 0.39 | N 1.18 ± 0.13 | I 1.26 ± 0.13 | C 1.28 ± 0.091 | A 0.724 ± 0.49 | Y 1.42 ± 0.07 | R 0.868 ± 0.23 | D 1.69 ± 0.09 | H 0.986 ± 0.049 | V 0.479 ± 0.25 | L 1.3 ± 0.4 | T 0.528 ± 0.38 | Q 0.91 ± 0.11 | S 0.814 ± 0.39 | G 1.53 ± 0.095 | W 1.69 ± 0.047
N427: F 1.42 ± 0.17 | D 1.07 ± 0.42 | E 1.12 ± 0.12 | A 1.33 ± 0.17 | Q 0.539 ± 0.033 | L 1.51 ± 0.071 | M 1.81 ± 0.08 | I 1 ± 0.25 | T 1.07 ± 0.11 | Y 1.47 ± 0.04 | H 0.904 ± 0.29 | C 1.1 ± 0.23 | W 1.3 ± 0.051 | S 1.1 ± 0.39 | P 1.18 ± 0.55 | G 1 ± 0.29 | V 1.06 ± 0.18 | R 0.362 ± 0.17 | K 0.842 ± 0.079
A429: T 1.12 ± 0.17 | Y 0.892 ± 0.44 | C 0.771 ± 0.1 | D 1.07 ± 0.29 | K 0.0334 ± 0.24 | G 0.724 ± 0.25 | L 1.06 ± 0.12 | N 1.09 ± 0.094 | H 1.47 ± 0.041 | V 1.01 ± 0.15 | I 1.14 ± 0.12 | Q 1.32 ± 0.12 | S 1.09 ± 0.17 | W 1.2 ± 0.081 | R 0.843 ± 0.2 | E 0.833 ± 0.28
